This assay relates to osteoblast. Nature of the assay: Osteoblast retraction assay. The settings on record: 10 nM, 1 h, mouse calvaria osteoblasts. It counts as cell-based, mice. How it is done: Retraction assays were performed with osteoblast prepared from calvaria of 1-day old mice according to published protocols (Miller et al., 1976, Science 192:1340-1343). In brief, osteoblasts were seeded in serum-free minimal essential medium-α (αMEM) at a density of 3000 cells per cm^2 into 96-well tissue culture plates coated with 50 μg/ml of type I collagen in phosphate-buffered saline containing 0.1% bovine serum albumin (PBS). One day after plating, PTH compounds were added to a final concentration of 10 nM and incubation was carried out for 1 h. Cells were then fixed and stained with toluidine blue, and the number of retracted cells was counted by visual inspection.

B1: Parathyroid Hormone: native, human parathyroid hormone (protein, UniProt P01270 32-115, looked up)
Parathyroid hormone: SVSEIQLMHNLGKHLNSMERVEWLRKKLQDVHNFVALGAPLAPRDAGSQRPRKKEDNVLVESHEKSLGEADKADVNVLTKAKSQ
modifications: Parathyroid hormone
B1: the “Retraction assay % Retracted cells” value was found to be 63.7%. In addition, the “Retraction assay % Retracted cells” value (listed as PTH) is given as ~64%.

(Values after patent publication US7414107B2, “Pharmacologically active peptide conjugates having a reduced tendency towards enzymatic hydrolysis” (priority 1998, dated 2008).)
